This note sets out measurements from the nanobody polyreactivity screen of Harvey et al. (2022).

The nature of this data set: yeast display, Sf9 membrane polyspecificity reagent, FACS + sequencing; frameworks hold sequencing errors. Put shortly:
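Using colony PCR, genes from sorted yeast display clones were amplified, then sequenced on MiSeq at 2 × 250 and filtered by CDR length. The clones had been stained with 10% biotinylated, detergent-solubilized Sf9 membrane reagent for 1 hour at 4 °C and sorted by FACS into low and high (top ~1%) gates on anti-HA and streptavidin fluorescence. Polyreactivity labels come from the gate of origin.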
Regarding “QVQLVESGGGLVQAGGSLRLSCAASGRIFAPYAMGWYRQAPGKERELVAAIRISGDSTYYADSVKGRFTISRDNAKNTVYLQMNSLKPEDTAVYYCAAEYYILHWFGYAGYPAYNYWGQGTQVTVSS”, the “polyreactivity (PSR sort gate)” value is “high polyreactivity”.

In the case of “QVQLVESWGGLVQAVGSLRLTCAASGVIFAIYAIGLYRQAAGKEREMVSSIRWSSGRTYYPDSVKGRFTISRDNAKNTVYLQMNSLKPEDTAVYNCAATPSIFTIHRQDYDYWGQGTQVTVSS”, the “polyreactivity (PSR sort gate)” value is recorded as “high polyreactivity”. Regarding “QVQLVESGGGLDQAGGSLRLSFAASGFIFRYYTMGWYRQAPGKERELVAVITRGGSTYYADSVKGRFTISRDNAKNTVYLQMNSLKPEDTAVYYCAADRPGTGYSDYDYWGQGTQVTVSS”, the “polyreactivity (PSR sort gate)” value is “high polyreactivity”.

With “QVQLVESGGGLVQAGGSLRLSCAASGIIFRYYAMGLYRQAPGKERELVAAISQGGGSTYYADSVKGRFTISRDNAKYTVYLPMKTLKPEDTAVYYCNTGRRHGLTQGGDYWGQGTQVTVSS”, the “polyreactivity (PSR sort gate)” value is reported as “high polyreactivity”.

In the case of “QVQLVESGGGLVQAGGSLRLSCAASGRIFRANAMGWSRQAPGKERELVAAISTSGGSTTYADSVKGRFTISRDNSKNTVYLQMNSLKPEDTAVYYCAVDSWLKWRDKWVIRHDYWGQGTQVTVSS”, the “polyreactivity (PSR sort gate)” value is given as “high polyreactivity”. For “QVQLVESGGGLVHAGGSLRLSCAASGSIFRRNAMGMSRQAPGKERELVASITSGASTYYADSVKGRFTISRDNAKNTVYIQMNSLKPEDTAVYYCAADIFVTAFASPMDYWGQGTQVTVSS”, the “polyreactivity (PSR sort gate)” value is reported as “low polyreactivity”.

On to “QVQLVESGGGLVQAGGSLRLSCAASGNTFVRYDMGWYRQAPGKEREFVAAITASGGSTYADSVKGRFTISRDNAKNTVYLQMNSLKPEDTAVYYCNAGNSSTGVDRYDYWGQGTQVTVSS”, for which the “polyreactivity (PSR sort gate)” value is reported as “low polyreactivity”. On to “QVQLVESGGGLVQAGGSLRLSCAASGRTFARYARGWYRPAPGKERELVAAISSSGGSTYYADSVKGRFTISRDNAKNTVYLQMNSLKPEDTSVYYCVTYRNWWYDYWGQGTQVTVSS”, for which the “polyreactivity (PSR sort gate)” value is on record as “high polyreactivity”.

In the case of “QVQLVESGGGLVQAGGSLRLSCAASGGIFGYYVMGWYRQAPGKERELVAVITRGGSTNYADSLKGRFTISRDNAKNTVYLQMNSLKPEDTAVYYCNAGPAGYYDYDYWGQGTQVTVSS”, the “polyreactivity (PSR sort gate)” value is recorded as “low polyreactivity”.

With “QVHLVESGGGLVQAGGSLRLSCAASGITFYIYAMGWYRQAPGTERELVAAISWRTGRTYYADSVKGRFTISRDNAKNTVYLQMNSLKPEYTAVYYCAAGVWVAGAFDYWGQGTQVNVSS”, the “polyreactivity (PSR sort gate)” value is on record as “high polyreactivity”. Take “QVQLVESGGGLVQAGGSLRLSCAASGSTFRSYTMGWYRQAPGKERELVAAISGRGGSTYYADSVKGRFTISRDNAKNTVYLQMNSLKPEDTAVYYCAAPYWKRVAWGFDYWGQGTQVTVSS”: the “polyreactivity (PSR sort gate)” value was “high polyreactivity”. As to “QVQLVESGGGLVQAGGSLRLSCAAYGNIFYVYVMGWYRQAPGKERELVASITSGASTYYADSVKGRFTISRDNAKNTVYLQMNSLKPEDTAVYYCAAEALGGAGDYSTLYIYDYWGQGTQVTVSS”, the “polyreactivity (PSR sort gate)” value was “low polyreactivity”.

In the case of “QVQLVESGGGLVQAGGSLRLTCAASGRTFDCYAMGLYRQAPGKERELVAAISSRGGSTYYADSVKGRFTISRDNAKNTVYLQMNSLKPEDTSVYYCAKDLGYRGRYNYWGQGTQVTVSS”, the “polyreactivity (PSR sort gate)” value is listed as “low polyreactivity”. Take “QVQLVESGGGLVQAGGSLRLSCAASRSTLCQNAMGWYRQAPGKEREFVADNSGSGDSTYYADSVKGRFTISRDHANNTVYLQLNSLTPEDTAVYYCATPSPHVGLKWEYDSWGQGTQVTVSS”: the “polyreactivity (PSR sort gate)” value is given as “low polyreactivity”. Take “QVQLVESGGGLVQAGGSLRLSCAASGSIFYSYAMGWYRRAPGKERELVARITSSTGRTYYADSVKGRFTISRDNAKNTVYLQMNSLKAEDTAVYYCNVVVKGAWDYYPYDYWGQGTQVTVSS”: the “polyreactivity (PSR sort gate)” value is listed as “high polyreactivity”. With “QVQLVESGGGLVQAGGSLRLSCAASGFIFRYYAMGWYRQAPGKERELVAAISRSGGRTYYADSVKGRFTISRDNAKNTVYLQMNSLKPEDTAVYYCAARYPVRPDDGYWGQGTQVTVSS”, the “polyreactivity (PSR sort gate)” value is reported as “high polyreactivity”.

“QVQLVESGGGLVQAGGSLRLSCAASGSTFVPYTMGWYRQAPGKERELVAAISGSGGTDYADSVKGRFTISRDNAKNTVYLQMNSLKPEDTAVYYCAADPQYWRFYSYGGGDDYWGQGTQVTVSS”: the “polyreactivity (PSR sort gate)” value is recorded as “low polyreactivity”. On to “QVQLQESGGGLVQAGGSLRLSCAASGYISHADEMGWYRQAPGLEHELVASISNGGSTNYADSVKGLFTISRDNAKNTEYLQLNSLKSEDTAVYYCAAWTGQVDIHYYWGQGTQVTVSS”, for which the “polyreactivity (PSR sort gate)” value is reported as “low polyreactivity”. For the sequence “QVQLVESGGGLVQAGGSLRLSCAASGFIFGSNVMGWYRQAPGKERELVAAISRSGGSTYYADSVKGRFTISRDNAKNTVYLQMNSLKPEDTAVYYCNKLAVGRSRTGDYWGQGTQVTVSS”, the “polyreactivity (PSR sort gate)” value is recorded as “high polyreactivity”. With “QVQLQESGGVQAGGSLRLSCAASGYITRSDVMGSYRQAPGKERELVATINNGTMTYYADSEKGRYTISRDNAKKTVYLQKNSQKPEDTAVHYCAVDQSDTDSLYYWGQGTQVTVSS”, the “polyreactivity (PSR sort gate)” value is “low polyreactivity”. Regarding “QVQLVESGGGLVQAGGSLRLSCAASGSTFYWYAMGWYIQAPGKERELGAAIRWSGDRTYYADSVKGLFTISRDNAKNTVYLQMNSLKPEDTAVYYCAAGKGRPVGGRAYYYWGQGTQVTVSS”, the “polyreactivity (PSR sort gate)” value is recorded as “high polyreactivity”. Regarding “QVQLVESGGGLVQAGGSLRLSCAASGRTFPDNAMGWYRQAPGKESEFVAAISSSGSTYYADSVKGRFTISRDNAKNTVYLQMNSLKPEDTAVYYCNRDDWPSYDFTGGDYWGQGTQVTVSS”, the “polyreactivity (PSR sort gate)” value is recorded as “low polyreactivity”.

On to “QVQLVESGGGLVQAGGSLRLSCAASGLIFSSYAMGLNRQAPGKEREFVAAISRTGGITYYADSVKGRFTISRDYAKNTVYLQMNSLKPEDTAVYYCNARWYDPTLKVGYWGQVTQVTVSS”, for which the “polyreactivity (PSR sort gate)” value was “high polyreactivity”. Under “QVQLVESGGGLVQAGGSLRLSCAAYGIIFSYNVMGWYRQAPGKEREYVAAITRSGGSTYYADSVKGRFTISRDNAKNTVYLQMNSLKPEDTAVYYCAATTWSGPSRYYDWGQGTQVTVSS” stands “high polyreactivity”. With “QVQLVESGGGLVQAGGSLRLSCAASGIIFYFYAMGWYRQAPGKERELVAAITSSGGSTYYADSVKGRFTISRDNAKNTVYLQMNSLKPEDTAVYYCAADSLHGRKFRGVDYWGQGTQVTVSS”, the “polyreactivity (PSR sort gate)” value is “low polyreactivity”.

For “QVQLVESGGGLVQAGGSLRLSCDASGRIFYGYVMGWYRQAPGKERELVAAINQSGTSTYYADSVKGRFTISRDNAKNTVYLQMNSLKPEDTAVYYCAADQVGWTYDYWGQGTQVTVSS”, the “polyreactivity (PSR sort gate)” value was “low polyreactivity”. The same measure for “QVQLVESGGGLVQAGGSLRLSCAASGSIFEGNAMGWYRQAPGKERELVAAISTTGGITYYADSVKGRFTISRDNAKNTVFLQMNSLKPEDTAVYYCAADPSQPRIDSSNYDYWGQGTQVTLSS”: “low polyreactivity”; for “QVQLVESGGGLVQAGGSLRLSCAASGFTFRYYAMGWYRPAPGKERELVAGISWSGSRTYYADSVKGRFTISRDSAKNTVYLQMNSLKPEDTAVYYCAKVNSYGPVPDRYDYWGQGTQVTVSS”: “high polyreactivity”; for “QVQLVESGGGLVQAGGSLRLSCAASGSTFAVIVMGWYRQAPGKERELVATITYRDGRTYYADSVKGRFTISRDNAKNTVYLQMNSLKPEDTAVYYCAADDEYKQEAEMDSWGQGTQVTVSS”: “low polyreactivity”.

In the case of “QVQLVESGGGLVQAGGSLRLSCAASGIIFDRYAMGWYRQAPGKERELVAAITYGGGSTYYADSVKGRFTISRDNAKNTVYLQMNSLKPEDTAVYYCAAVPRSGMYYWGQGTQVTVSS”, the “polyreactivity (PSR sort gate)” value is “high polyreactivity”. The same measure for “QFQLVESGGGLVQAGGSLRLSCAASGLIFVINAMGWYRQAPGKERELDATISSGVSTNYADSVKGRFTISRDNAKNTVYLQMNSLKPEDTAVYYCNKDGVVEVRFTVRQEYDYWGQGTQVTVSS”: “low polyreactivity”; for “QVQLVESGGGLVQAGGSLRLSCAASGRTFTYNAMGWYRQAPGKERELVAAISSSGGRTYYADSVKGRFTISRDNAKNTVYLQMNSLKPEDTAVYYCNKVKYRFSPPGYDYWGQGTQVTVSS”: “high polyreactivity”; for “QVQLVESGGGLVQAGGSLRLSCAASGSTFSTYAMGWYRQAPGKERELVAAITRRGGRTYYADSVKGRFTISRDNAKNTVYLQMNSLKPEDTAVYYCAKTSPVSDGYYWGQGTQVTVSS”: “high polyreactivity”. Turning to “QVQLVESGGGLVQAGGSLRLSCAASGSILGYYAMRWYRQAPGKDRELVAAISSGGSTNYADSVKGRFTISRDNAKNTVYLQMNSLKPEDTAVYYCAADRTYHGGFDYWGLGTQVTVSS”, the “polyreactivity (PSR sort gate)” value is “low polyreactivity”.

As for “QVQLVESGGGLVQAGGSLRLSCAASGSTFQRYAMGWYRQAPGKERELVAAITIRGTRTYYADSVKGRFTISRDNAKNTVYLQMNSLKPEDTAVYYCAATYYWYGHPSRRYDYWGQGTQVTVSS”, the “polyreactivity (PSR sort gate)” value is given as “high polyreactivity”. The same measure for “QVQLVESGGGLVQAGGSLRLSCAASGRTFVRYTMGWYRQAPGKERELVAAISGSGSSTFYADSVKGRFTISRDNAKNTVYLQMNSLKPVDTAVYYCAARVRRVARDPYDYWGQGTQVTVSS”: “high polyreactivity”. Under “QVQLVESVGGLVQAGGSLRLSCAASGFTFTYNAMGWYRQAPGKERELVAAISRNGGRTYYADSVKGRFTISRDNAKNTVYLQMNSLKPEDTAVYYCNAVYYYYYWRVSIYDYWGQGTQVTVSS” stands “high polyreactivity”. The same measure for “QVQLVESGGGLVQAGGSLRLSCAASGRTFWNYAMGCYRQAPGKERELVAAISSSGGTTYYADSVKGRFTISRDNAKNTVYLQMNTLKPEDTAVYYCAATGVSKPQRSFGYWGQGTQVTVSS”: “low polyreactivity”. As for “QVQIVESGGGLVQAGGSLRLSCAASGYIFPYYAMGWYRQAPGKERELVAGITTDGSSTYYADSVKGRFTISRDNAKNTVYLQMNSLNPEDTAVYYFYVYPGYTWGWYDYWGQGTQVTVSS”, the “polyreactivity (PSR sort gate)” value was “low polyreactivity”. In the case of “QVQLVESGGGLVQAGGSLRLSCAATGFTFYVNAMGWYRQAPGKERELVAGITTSDGSTYYADSVKGRFTISRDNAKNTVYLQMNSLKPEDTAVYYCAAAITWYQLYQRSGGDYWGQGTQVTVSS”, the “polyreactivity (PSR sort gate)” value is “low polyreactivity”.
